In paper PMC6109231:
Several values for one entry are separate records, joined by “and”; a condition that tells them apart may be missing. Identical values can stand only once.

Target: 20S proteasome core (human (endogenous in HEK293T))
Assay: negative-stain EM, single-particle analysis; SEC fraction 4 (1.5 to 2 MDa) of HEK293T lysate, Superdex 200 in PBS pH 7.2 at 4°C; 2% uranyl acetate; raw micrographs, reference-free 2D class averages, 3D classification (RELION) and ab initio reconstruction (cryoSPARC); proteins identified by mass spectrometry of the fraction

19S regulatory particle (complex)
stoichiometry N: 1 and 2
